Bridge positions count the residues as written; N and C are the ends. Square brackets hold non-standard residues; d marks the D form. Peptide text beside a SMILES is read from it. * marks the point of attachment. NOTA = O=C(O)CN1CCN(CC(=O)O)CCN(CC(=O)*)CC1; Nle = CCCC[C@H](N)C(=O)O; AEEA = NCCOCCOCC(=O)O
Design: species or system human
Description: The rat SUVs were translated into a percentage of injected activity (%IA, Equation (3)) for human organs according to Equation (3) (Table S3), where SUVA is the SUVs of the rat organs; gorgan and kgTBweight are, respectively, standard organ weight and standard total body weight of a human. The standard organ masses and total-body weight values were obtained from the OLINDA software (organ level internal dose assessment code, Vanderbilt University, USA, 2007). (3) %IAOrganhuman=SUVA∗gorgan/kgTBweighthuman The %IA values were decay corrected to the animal termination time point at 5, 10, 30, 40, 60, and 120 min post administration and plotted as a function of time. The area under the curve for each organ was integrated using the trapezoid method assuming a simple exponential decay to eternity after the last point. The derived time-integrated activity coefficient (TIAC) for each organ, which is equal to the number of disintegrations (MBq-h/MBq) and dose rate S-values extracted from the Medical Internal […] (MIRD) pamphlet, was used for the computation of organ and whole-body effective doses (mSv/MBq) in humans in the OLINDA/EXM software package (Version 1.1, Vanderbilt University).

## CCCC[C@@H]1NC(=O)[C@H](C(C)C)NC(=O)[C@H](CCCNC(=N)N)NC(=O)CNC(=O)[C@@H]2CCCN2C(=O)[C@@H](NC(=O)COCCOCCNC(=O)CN2CCN(CC(=O)O)CCN(CC(=O)O)CC2)CSSC[C@@H](C(=O)O)NC(=O)[C@@H]2CCCN2C(=O)CNC(=O)[C@H](CCC(=O)O)NC(=O)[C@H](CC(=O)O)NC(=O)[C@H](CC(=O)O)NC(=O)CNC(=O)[C@H](CC(C)C)NC(=O)[C@H](Cc2c[nH]cn2)NC(=O)[C@H](CC(C)C)NC(=O)CNC(=O)[C@H](Cc2c[nH]cn2)NC1=O [[^68Ga]Ga-NO2A-[Nle^13]-Col, [^68Ga]Ga-NOTA-PEG2-c[CPGRVNleHGLHLGDDEGPC], metal not drawn] ({NOTA-AEEA}-CPGRV[Nle]HGLHLGDDEGPC-OH; disulfide 1-18)
  PET/CT examinations per year: 4-5
  administration per year allowed by bone marrow absorbed dose: 8000-10,000 MBq per year
  dose of all organs other than kidney: lower than 0.02 mSv/MBq
  dose of the remaining organs: less than 0.009 mSv/MBq
  estimated absorbed dose, spleen: 0.003 mGy/MBq
